Data taken from patent publication US20240059771A1 (SHANGHAI JUNSHI BIOSCIENCES, published 2024).

What was measured:
human CLDN-18.2 [1] = target: T1, human CLDN-18.2 (human, UniProt P56856-2 1-261); assay: cell-based or functional assay
human CLDN-18.2 [2] = target: T1, human CLDN-18.2; assay: flow cytometry on NUGC4-CLDN-18.2 cells, 4 C 30 min, fluorescent secondary antibody
Method: Finally, the fluorescence intensity was detected by BD CantoII flow cytometer. The stronger the fluorescent signal, the higher the affinity of the antibody to the target. The antibody dose-dependent binding curve was fitted by GraphPad (FIG. 1) and EC₅₀ was calculated (Table 3). The positive and negative controls were IMAB362 and anti-KLH hu-IgG1 antibody, respectively.

human CLDN-18.2 [3] = target: T1, human CLDN-18.2; assay: flow cytometry (FACS) on NUGC4-CLDN-18.2 cells, fluorescent secondary antibody, MFI
Source text: Fluorescent signal was detected by FACS; the stronger the detected fluorescent signal, the higher the antibody affinity, that is, the higher the target binding activity. Antibody binding curves were fitted by GraphPad (FIGS. 4a, 4b and 4c), and the positive and negative controls were IMAB362 and anti-KLH hu-IgG1 antibody, respectively.

| Binder | EC50 of ADCC effect (Jurkat NFAT-Luc/FcγRIIIaR reporter cells) (human CLDN-18.2 [1]) [µg/mL] | EC50 of CDC effect (complement serum, PI staining, flow cytometry) (human CLDN-18.2 [1]) [µg/mL] | EC50 (human CLDN-18.2 [2]) [µg/mL] | EC50 (read off the curve) (human CLDN-18.2 [3]) [µg/mL] | EC50 of ADCC effect (Jurkat ADCC NFAT luciferase reporter cells) (human CLDN-18.2 [1]) [µg/mL] | EC50 of CDC effect (complement serum, PI staining, relative killing rate) (human CLDN-18.2 [1]) [µg/mL] | also measured |
| --- | --- | --- | --- | --- | --- | --- | --- |
| anti-CLDN-18.2 chimeric antibody Chi-JS012-2 (antibody, V domains shown, Fused to a human heavy chain constant region and a human kappa constant region cloned from human blood cells) VH: DVQLVESGGGLVQPGGSRKLSCAASGFTLNNFGMHWVRQAPEKGLEWVACISSGSGTIYYADTVKGRFTISRDNPKNTLFLQMTSLRSEDTAMYYCARAYYGNGFSFWGQGTLVTVSS VL: DIVMTQSPSSLTVTAGEKVTMSCKSSQSLLNSGNQKNYLTWYQQKPGQPPKLLIYWASTRESGVPDRFTGSGSGTDFTLTISSVQAEDLAIYYCQNVYSYPLTFGAGTKLEIK | 0.0561 | 0.461 | 4.02 | – | – | – | – |
| anti-CLDN-18.2 chimeric antibody Chi-JS012-10 (antibody, V domains shown, Human heavy chain constant region and human kappa constant region) VH: QIQLVQSGPELKKPGETVKISCKASGYTFTNYGMNWVKQAPGKGLKWMGWINTYTGESTYADDFKGRFAFSSETSARTAYLQINNLKNEDMATYFCATLGYGNSLAYWGQGTLVTVSS VL: DIVMTQSPSFLTVTAGEKVTMSCKSSQSLLNSGNQKNYLTWYQQKPGQPPKLLIYWASTRDSGVPDRFTGSGSGTDFTLTITSVQAEDLAVFYCQNAYFYPFTFGSGTKLEIK | 0.0495 | 0.358 | 3.19 | – | – | – | – |
| anti-CLDN-18.2 chimeric antibody Chi-JS012-21 (antibody, V domains shown, Human heavy chain constant region and human kappa constant region) VH: QIQLVQSGPELKKPGETVKISCKASGYTFTNYGMNWVKQAPGKGLKWMGWINTYTGESTYADDFKGRFAFSSETSARTAYLQINNLKNEGMATYFCARSYNGNSLPYWGQGTLVTVSS VL: DIVMTQYPSFLTVTTGEKVTMSCKSSQSLLNSGNQRNYLTWYQQKPGQPPKLLIYWASTRESGVPDRFAGSGSGTDFTLTISSVQAEDLAIYYCQNNYFYPFTFGSGTKLEVK | 0.0631 | – | 2.37 | – | – | – | – |
| anti-CLDN-18.2 chimeric antibody Chi-JS012-27 (antibody, V domains shown, Human heavy chain constant region and human kappa constant region) VH: EVKLVESGGGLVKPGGSLKLSCAASGFTFSSYGMSWVRQTPEKRLECVATISGGDSYTYYPDSVRGRFTISRDIAKNNLYLQMSSLRSEDTALYYCARSYNGNSLPYWGQGTLVTVSS VL: DIVMTQYPSFLTVTTGEKVTMSCKSSQSLLNSGNQRNYLTWYQQKPGQPPKLLIYWASTRESGVPDRFAGSGSGTDFTLTISSVQAEDLAIYYCQNNYFYPFTFGSGTKLEVK | 0.0432 | 0.265 | 2.92 | – | – | – | – |
| IMAB362 (antibody, V domains shown) VH: QVQLQQPGAELVRPGASVKLSCKASGYTFTSYWINWVKQRPGQGLEWIGNIYPSDSYTNYNQKFKDKATLTVDKSSSTAYMQLSSPTSEDSAVYYCTRSWRGNSFDYWGQGTTLTVSS VL: DIVMTQSPSSLTVTAGEKVTMSCKSSQSLLNSGNQKNYLTWYQQKPGQPPKLLIYWASTRESGVPDRFTGSGSGTDFTLTISSVQAEDLAVYYCQNDYSYPFTFGSGTKLEIKR | – | 0.354 | – | ~2 | – | – | EC50 of ADCC effect (Jurkat NFAT-Luc/FcγRIIIaR reporter cells), FIG. 2a (human CLDN-18.2 [1]): 0.036 µg/mL; EC50 of ADCC effect (Jurkat NFAT-Luc/FcγRIIIaR reporter cells), FIG. 2b (human CLDN-18.2 [1]): 0.0344 µg/mL; EC50 (human CLDN-18.2 [3]): 1.39 µg/mL |
| humanized anti-CLDN-18.2 antibody JS012-Chi9-hu7-v2 (antibody, human IgG1, kappa, V domains shown) VH: QVQLVQSGSELKKPGESVKVSCKASGYTFTNYGMNWVRQAPGQGLEWMGWINTYTGESTYADGFTGRFVFSMDTSASTAYLQISSLKAEDMAMYFCATLGYGNSLAYWGQGTLVTVSS VL: DIVMTQSPDSLAVSLGERATINCKSSQSLLNSGNQRNYLTWYQQKPGQPPKLLIYWASTRESGVPDRFSGSGSGTDFTLTISSLQAEDVAVYYCQNNYFYPFTFGQGTKLEIKR | – | – | – | ~1 | 0.0225 | 0.134 | – |
| humanized anti-CLDN-18.2 antibody JS012-Chi9-hu7 (antibody, human IgG1, kappa, V domains shown) VH: QIQLVQSGSELKKPGESVKVSCKASGYTFTNYGMNWVRQAPGQGLEWMGWINTYTGESTYADGFTGRFVFSSDTSARTAYLQISSLKAEDTAVYFCATLGYGNSLAYWGQGTLVTVSS VL: DIVMTQSPDSLAVSLGERATINCKSSQSLLNSGNQRNYLTWYQQKPGQPPKLLIYWASTRESGVPDRFSGSGSGTDFTLTISSLQAEDVAVYYCQNNYFYPFTFGQGTKLEIKR | – | – | – | ~1 | 0.0236 | 0.086 | – |
| humanized anti-CLDN-18.2 antibody JS012-Chi27-hu3-v2 (antibody, human IgG1, V domains shown) VH: EVQLVESGGGLVKPGGSLRLSCAASGFTFSSYGMSWVRQAPGKGLEWVSTISGGDSYTYYPDSVRGRFTISRDNAKNSLYLQMNSLRAEDTAVYYCARSYNGNSLPYWGQGTLVTVSS VL: DIVMTQSPDSLAVSLGERATINCKSSQSLLNSGNQRNYLTWYQQKPGQPPKLLIYWASTRESGVPDRFSGSGSGTDFTLTISSLQAEDVAVYYCQNNYFYPFTFGQGTKLEIK | – | – | – | ~1 | 0.0358 | 0.169 | – |
| humanized anti-CLDN-18.2 antibody JS012-Chi27-hu6-v3-2 (antibody, human IgG1, V domains shown) VH: EVQLVESGGGLVKPGGSLRLSCAASGFTFSSYGMSWVRQAPGKGLESVSTISGGDSYTYYPDSVRGRFTISRDIAKNSLYLQMNSLRAEDTAVYYCARSYNGNSLPYWGQGTLVTVSS VL: DIVMTQSPDSLAVSLGERATINCKSSQSLLNSGNQRNYLTWYQQKPGQPPKLLIYWASTRESGVPDRFSGSGSGTDFTLTISSLQAEDVAVYYCQNNYFYPFTFGQGTKLEIK | – | – | – | ~5 | 0.0742 | 0.715 | – |
| humanized anti-CLDN-18.2 antibody JS012-Chi2-hu2-v3-2 (antibody, human IgG1, kappa, V domains shown) VH: EVQLVESGGGLVQPGGSLRLSCAASGFTLNNFGMHWVRQAPGKGLEWVSSISSGSGTIYYADSVKGRFTISRDNPKNSLYLQMNSLRAEDTAVYYCARAYYGNGFSFWGQGTLVTVSS VL: DIVMTQSPDSLAVSLGERATINCKSSQSLLNSGNQKNYLTWYQQKPGQPPKLLIYWASTRESGVPDRFSGSGSGTDFTLTISSLQAEDVAVYYCQNVYSYPLTFGQGTKLEIKR | – | – | – | – | 0.0142 | 0.167 | EC50 (human CLDN-18.2 [3]): 1.65 µg/mL |
| anti-CLDN-18.2 chimeric antibody Chi-JS012-9 (antibody, V domains shown, Human heavy chain constant region and human kappa constant region) VH: QIQLVQSGPELKKPGETVKISCKASGYTFTNYGMNWVKQAPGKGLKWMGWINTYTGESTYADDFKGRFAFSSETSARTAYLQINNLKNEDMATYFCATLGYGNSLAYWGQGTLVTVSS VL: DIVMTQYPSFLTVTTGEKVTMSCKSSQSLLNSGNQRNYLTWYQQKPGQPPKLLIYWASTRESGVPDRFAGSGSGTDFTLTISSVQAEDLAIYYCQNNYFYPFTFGSGTKLEVK | 0.0436 | 0.316 | 3.22 | – | – | – | – |
